Assay results published in patent publication US20240043507A1 (RQ BIOTECHNOLOGY, published 2024).

Tests used:
Test in all cases: cell-based or functional assay
[1] = target: spike protein of SARS-CoV-2 strain B.1.351 (SARS-CoV-2, UniProt P0DTC2 14-1273)
[2] = target: spike protein of SARS-CoV-2 strain P.1 (SARS-CoV-2, UniProt P0DTC2 14-1273)
[3] = target: spike protein of SARS-CoV-2 strain B.1.1.7 (SARS-CoV-2, UniProt P0DTC2 14-1273)
[4] = target: spike protein of SARS-CoV-2 strain Victoria (SARS-CoV-2/human/AUS/VIC01/2020) (SARS-CoV-2, UniProt P0DTC2 14-1273)

| Binder | IC50 (FRNT neutralisation) [1] [mg/L] | IC50 (FRNT neutralisation) [2] [mg/L] | IC50 (FRNT neutralisation) [3] [mg/L] | IC50 (FRNT neutralisation) [4] [mg/L] | FRNT50 ratio B.1.351/Victoria [1] | FRNT50 ratio P.1/Victoria [2] | FRNT50 ratio B.1.1.7/Victoria [3] |
| --- | --- | --- | --- | --- | --- | --- | --- |
| antibody 316 (antibody, V domains shown) VH: not shown VL: QAVLTQPPSASGSPGQSVTISCTGTSSDVGGYNYVSWYQQHPGKAPKLMIYEVSKRPSGVPDRFSGSKSGNTASLTVSGLQAEDEADYYCSSYAGSNHWVFGGGTKLTVL | > 10 | > 10 | 0.024 | 0.018 | – | – | – |
| antibody 398 (antibody, V domains shown, also called mAb 398) VH: QVQLVESGGGLVQPGGSLRLSCAASGFTVSSNYMTWVRQAPGKGLEWVSVIYSGGSTYYADSVKGRFTISRDNSKNTLYLQMNSLRADDTAVYYCARDSTADYDFWSGYYVGAFHIWGQGTMVTVSS VL: QTVLTQPASVSGSPGQSITISCTGTSSDVGGYNYVSWYQQHPGKAPKLMIYEVTKRPSGVPDRFSGSKSGNTASLTVSGLQAEDEADYYCSSYAGSNNWVFGGGTKLTVL | > 10 | > 10 | 0.18 | 0.091 | – | – | – |
| antibody 132 (antibody, V domains shown) VH: QVQLQQWGAGLLKPSETLSLTCAVYGGSFSGYYWSWIRQPPGKGLEWIGEINHSGSTNYNPSLKSRVTISVDTSKNQFSLKLSSVTAADTAVYYCARTDYYDSIDWGQGTLVTVSS VL: QSVLTQEPSLTVSPGGTVTLTCGSSTGAVTSGHYPYWFQQKPGQVPRTLIYDTRNKHSWTPARFSGSLLGGKAALTLSGAQPEDEAEYYCLLSSSGARVFGGGTKLTVL | > 10 | > 10 | 0.337 | 0.048 | > 208 | > 208 | 7 |
| antibody 88 (antibody, V domains shown, also called mAb 88) VH: QLQLQESGPGLVKPSQTLSLTCTVSGGSISSGSYNWTWIRQPAGKGLEWIGRIYNSGSTNYNPSLKSRVTISVDTSKNQLSLKVRSVTAADTAVYYCARHCSGGTCYPKYYYGMDVWGQGTTVTVSS VL: QSALTQPPSVSEAPRQRVTISCSGSSSNIGNNAVNWYQQFPGKAPKLLIYYDDLLPSGVSDRFSGSKSGTSASLAISGVQSEDEADYYCAAWDDSLNVVVFGGGTKLTVL | > 10 | > 10 | 0.058 | 0.033 | – | – | – |
| antibody 278 (antibody, V domains shown, also called mAb 278) VH: QVQLVQSGAEVKKPGASVKVSCKASGYIFIRYGISWVRQAPGQGLEWMGWISANNGYTNYAQKLQGRVTMTTDTSTSTAYMELRSLRSDDTAVYYCARDGGILTGYLDYFDHWGQGTLVTVSS VL: DIQMTQSPSSLSASVGDRLTITCRASQSIASYLNWYQQKPGKAPKLLIYAASSLQSGVPSRFSGSGSGTDFTLTISSLQPEDFATYHCQQSYSTLGITFGPGTKVDIK | 0.16 | 0.245 | 0.307 | 0.014 | – | – | – |
| antibody 253H165L (antibody, V domains shown) VH: not shown VL: DIVMTQSPGTLSLSPGERATLSCRASQSVRSSYLAWYQQKPGQAPRLLIYGASRRGTGIPDRFSGSGSGTDFTLTISRLEPEDFAVYYCQQYGSSPWTFGQGTKVEIK | 0.013 | 0.019 | 0.006 | 0.003 | – | – | – |
| antibody 165 (antibody, V domains shown, also called mAb 165) VH: QVQLVQSGPEVKKPGTSVKVSCKASGFTFTSSAVQWVRQARGQRLEWIGWIVVGSGNTNYAQKFQESVTITRDMSTSTAYMELSSLRSEDTAVYYCAAPHCIGGSCHDAFDIWGQGTMVTVSS VL: DIVMTQSPGTLSLSPGERATLSCRASQSVRSSYLAWYQQKPGQAPRLLIYGASRRGTGIPDRFSGSGSGTDFTLTISRLEPEDFAVYYCQQYGSSPWTFGQGTKVEIK | 0.054 | 0.241 | 0.212 | 0.034 | – | – | – |
| antibody 170 (antibody, V domains shown) VH: QVQLVESGAEVKKPGESLKISCKGSGYSFTSYWIVWVRQMPGKGLEWMGIIYPGDSDTKYSPSFQGQVSISADKPISTAYLQWSRLKASDTAMYYCARLGNWLVDYWGQGTLVTVSS VL: DIVMTQSPLSLSVTPGQPASISCKSSQSLLHSDGKTYLYWYLQKPGQPPQLLMYEVSNRFSGVPDRFSGSGSGTDFTLKISRVESEDVGVYYCMQSIQLPRGITFGQGTRLEIK | > 10 | > 10 | 0.105 | 0.025 | > 402 | > 402 | 4.2 |
| antibody 150 (antibody, V domains shown) VH: QVQLVESGGGLIQPGGSLRLSCAASGVTVSSNYMSWVRQAPGKGLEWVSIIYSGGTTYYADSVKGRFTISRDSSMNTLYLQMNSLRAEDTAVYYCARDLMVYGIDVWGQGTTVTVSS VL: EIVMTQSPSSLSASVGDRVTITCRASQGISSYLAWYQQKPGKAPKLLIYAASTLQSGVPSRFSGSGSGTDFTLTISSLQPEDFATYYCQQLDSYPPGYTFGQGTKVDIK | 0.35 | 0.04 | 0.139 | 0.012 | 30 | 3.4 | 12 |
